Biological target: DosR (Mycobacterium tuberculosis H37Rv) (UniProt P9WMF9)
Assay: EMSA
Conditions: 25 mM Tris-HCl pH 8.0, 20 mM KCl, 0.5 mM EDTA, 6 mM MgCl2, 1 mM DTT, 1 ug/mL poly I:C; room temperature, 10 min; 6.5% native Tris-glycine PAGE, silver staining

TTGATGCCTCCTAATCGATGGAAACGGATGCCTTTGATCCGACCAGCCCATCGTGGCCAGGGCTAGGGACAGAAGTCCCCGAAGCGCGGGCCATTTGTCCGCGCCCGTCGGTGATCCACTTGGGGACCATTGACCCTGTTGTCTGCCA (double strand) [acr promoter fragment]
binding: binds

Reference: paper PMC5861037
